biological target: WT Spike (SARS-CoV-2, UniProt P0DTC2 16-1213)

| Binder | Kd [pM] |
| --- | --- |
| Ab_16 (scFv, V domains shown) VH: QVQLVQSGGGVVQPGRSLRLSCAASGFTFSNYGMHWVRQAPGKGLEWVALIWERGSKKDYADSVKGRFTVSRDNSKNTLYLQMNSLRPEDTAVYFCAREGISMTGAEYFQHWGQGTLVTVSS VL: QSVLTQPPSVSGSPGQRVTMSCTGSSSNIGAGYDVHWYQQVPGAAPRLLIYGTNNRPSGVPDRFSGSKSGTSASLTITGLQAEDEADYYCQSYDNSLTDPYVFGTGTKVTVL | 11.8 |
| Ab 21 (scFv, V domains shown) VH: QVQLVQSGGGLVQPGGSLRLSCATSGFTFDDYAMHWVRQAPGKGLEWVSGISWNSGSIGYVDSVKGRFTISRDNRNNKVYLQMNNLRAEDTAVYYCARDWWGSIDHWGLGTLVTVSS VL: QSALTQPRSVSGSPGQSVTISCTGTSSDVGGYDYVSWYQQHPGKAPKLIIYDVSKRPSGVPDRFSGSKSGNTASLTVSGLQAEDEADYYCSSYTSSSPVVFGGGTKLTVL | 9.25 |
| Ab_19 (scFv, V domains shown) VH: EVQLVESGAEVKKPGESLKISCKGSGYSFTSYWIGWVRQMPGKGLEWMGIIYPGDSDTRYSPSFQGQVTISADKSISTAYLQWSSLKASDTAMYYCARRGDLDAFDIWGQGTMVTVSS VL: QPGLTQPPAASGTPGQRVTVSCSGASANIGSNAVSWFKQFPETAPRLLISGNTHRPSGVPDRVSGSKSGTSASLTISGLQSDDEADYYCAAWDDSLNGYVFGSGTKVTVL | 8.9 |
| Ab 23 (scFv, V domains shown) VH: EVQLVQSGAEVKKPGSSVKVSCRSSGGTFSTYGITWVRQAPGQGLEWMGRIIPSLGIPNYAQKFQGRVTITADTSVSTAWMELSSLESDDTAIYYCARENIDLATNDFWGQGTLVTVSS VL: QSALTQPPSASGSPGQSVTISCTGTSRDIGAYGYVSWYQQVPGKAPKLIIYEVRNRPSGVSSRFSGSKSGNTASLTISGLQAEDEADYYCSSYTSSSTLDVVFGGGTKLTVL | 8.84 |
| Ab 20 (scFv, V domains shown) VH: QVQLVQSGGGSVKPGGSLRLSCAASGYRLSDYYMHWVRQAPGKGLEWVANIKQDGSEKYYVDSVKGRFTISRDNAKNSLYLQMNSLRAEDTAVYYCARVRGWSRGYFDYWGQGTLVTVSS VL: NFMLTQPHSVSESPGKTVTISCTGSSGSIASNYVQWYQQRPGSAPTTVIYEDNQRPSGVPDRFSGSIDSSSNSASLLISGLKTEDEADYYCQSYDSSNHWVFGGGTKLTVL | 9.01 |
| Ab_14 (scFv, V domains shown) VH: QVQLQQSGPGLVKPSQTLSLTCAISGDSVSSNSAAWNWIRQSPARGLEWLGRTYYRSRWYNDYAISMKSRITINPDTSKNQFSLQLESVTPEDTAVYYCAREIRGFDYWGQGTLVTVSS VL: QSVLTQPPSASGSPGQSVTISCTGTSSDVGAYNFVSWYQHHPGKAPKLIIYDFNKRPSGVPDRFSGSKSGNTASLTVSGLQADDEADYYCSSYAGSNNFDVVFGGGTKLTVL | 8.22 |
| Ab_18 (scFv, V domains shown) VH: EVQLVQSGGGVVQPGRSLRVSCAASGFSFSRYGMHWVRQAPGKGLEWVAFIRHDGSKKYYADSVEGRFTISRDNSRNTVSLEMNSLRGEDTAVYYCAKDGRLEAALDDWGQGTLVTVSS VL: NFMLTQPHSMSGSAGKTVTVSCIRSSGSIANNFVQWYQQRPGSAPTTVIYEDNQRPSGVPDRFSGSIDSSSNSASLTISGLKTEDEADYYCQSYDSSNLVFGGGTRLTVL | 9.07 |
| Ab_17 (scFv, V domains shown) VH: QVQLVQSGGGVVQPGRSLRLSCAASGFTFDDYAMHWVRQVPGKGLEWVSGIDWNSGVIGYADSVKGRFTISRDNVKNSLYLQMNSLRTEDSALYYCAKDIGPGGSGSYYAFDIWGQGTTVTVSS VL: QSALTQPASVSGSPGQSITISCTGTSSDVGGSKYVSWYQQHPGKAPKVMIYDVTKRPSGVPDRFSGSKSGNTASLTISGLQAEDEADYYCAAWDDSLNGVVFGGGTKLTVL | 6.35 |

Source: patent US20230374114A1 (Dana-Farber, published 2023)
